# Earlier results, collected in US20070184095A1, “OSMIUM COMPOUNDS FOR THE TREATMENT OF PSORIASIS” (priority 2006, published 2007).
substance,measurement,setting,value
Adalimumab,increase in incidence of serious infections,"human, in vivo",two-fold
same,most notable complication,"human, in vivo",reactivation of tuberculosis
"infliximab: chimeric (mouse-human) IgG1 monoclonal antibody, which binds to and inactivates TNF-α",reported adverse events,small percentage of treated patients,"pneumonia, tuberculosis, lymphoma, drug-induced lupus and hepatotoxicity"
efalizumab: humanized monoclonal antibody against the CD11a subunit of LFA-1,patients who developed hemolytic anaemia,"human, in vivo",four
same,"patients with immune-mediated thrombocytopenia (platelet counts at or below 52,000 cells/microliter)","human, in vivo",0.3%
same,subjects developing antiefalizumab antibodies,"human, in vivo",approximately 5%
same,overall incidence of hospitalization for infections,placebo 1.2,1.6 per 100 patient-years
